Results: US20070148669

Key:
[1] = target: T1, synthetic peptide Ac-SPLAQA-VRSSSR-NH2 (SEQ ID NO: 17) with the P′1 valine substituted by glycine
T1 chain: SPLAQAGRSSSR

[2] = target: T2, synthetic peptide Ac-SPLAQA-VRSSSR-NH2 (SEQ ID NO: 17) with the P′1 valine substituted by serine
T2 chain: SPLAQASRSSSR

[3] = target: T3, synthetic peptide Ac-SPLAQA-VRSSSR-NH2 (SEQ ID NO: 17) with the P′1 valine substituted by alanine
T3 chain: SPLAQAARSSSR

B1: tumor necrosis factor-alpha converting enzyme (TACE) catalytic domain (protein)
chain: RADPDPMKNTCKLLVVADHRFYRYMGRGEESTTTNYLIELIDRVDDIYRNTAWDNAGFKGYGIQIEQIRILKSPQEVKPGEKHYNMAKSYPNEEKDAWDVKMLLEQFSFDIAEEASKVCLAHLFTYQDFDMGTLGLAYVGSPRANSHGGVCPKAYYSPVGKKNIYLNSGLTSTKNYGKTILTKEADLVTTHELGHNFGAEHDPDGLAECAPNEDQGGKYVMYPIAVSGDHENNKMFSQCSKQSIYKTIESKAQECFQERSNKVGSHHHHHH
Which “catalytic activity of TACE (product formation quantified at 214 nm after HPLC separation; 100 nM TACE, 100 micromolar substrate)” value (shortened to “catalytic activity of TACE”) [1] does the source give for B1 here?
The value was “decreased activity of TACE to non-detectable levels”.

What about the “catalytic activity of TACE” value [2] of the same protein?
Its value is “decreased activity of TACE to non-detectable levels”.

What about the “catalytic activity of TACE” value [3] of the same protein?
The value was “decreased activity of TACE to non-detectable levels”.
